Assays:
Assay in all cases: MYTH quantitative β-Gal activity assay
TbMCUdΔ4 = conditions: n = 3; 8 colonies were used in each independent experiment; read off a plot
TbMCUdΔ2 = conditions: n = 3; 8 colonies were used in each independent experiment; read off a plot
TbMCUcΔ4 = conditions: n = 3; 8 colonies were used in each independent experiment; read off a plot
TbMCUdΔ3 = conditions: n = 3; 8 colonies were used in each independent experiment; read off a plot
[1] = target: TbMCUc without the mitochondrial targeting signal, MYTH bait or prey; conditions: n = 3; 8 colonies for each independent experiment; parent: est. 140; read off a plot
[2] = target: TbMCUd without the mitochondrial targeting signal, MYTH bait or prey; conditions: n = 3; 8 colonies for each independent experiment; parent: est. 120; read off a plot
TbMCUcΔ3 = conditions: n = 3; 8 colonies were used in each independent experiment; read off a plot
TbMCUcΔ2 = conditions: n = 3; 8 colonies were used in each independent experiment; read off a plot

Question: Which response (TbMCUdΔ4) does the source give for “TbMCUd without the mitochondrial targeting signal, MYTH bait or prey MCUdΔ4: TMH1 and TMH2 each replaced by WALP (…), in bait and prey” here?
Answer: 15 units

Question: With “TbMCUd without the mitochondrial targeting signal, MYTH bait or prey MCUdΔ2: TMH1 replaced by WALP (…), in bait and prey” as the substance, how does the response (TbMCUdΔ2) read?
Answer: 70 units

Question: For “TbMCUc without the mitochondrial targeting signal, MYTH bait or prey MCUcΔ4: TMH1 and TMH2 each replaced by WALP (…), in bait and prey”, which response (TbMCUcΔ4) is on record?
Answer: 20 units

Question: Which response (TbMCUdΔ3) does the source give for “TbMCUd without the mitochondrial targeting signal, MYTH bait or prey MCUdΔ3: TMH2 replaced by WALP (…), in bait and prey” here?
Answer: 52 units

Question: What does the source list for “TbMCU without the mitochondrial targeting signal, MYTH bait or prey Y235A; F236A; T241E; Y248A”?
Answer: response [1]: 65 units; response [2]: 58 units

Question: For “TbMCUc without the mitochondrial targeting signal, MYTH bait or prey MCUcΔ3: TMH2 replaced by WALP (…), in bait and prey”, which response (TbMCUcΔ3) is on record?
Answer: 55 units

Question: “TbMCUc without the mitochondrial targeting signal, MYTH bait or prey MCUcΔ2: TMH1 replaced by WALP (…), in bait and prey” was tested. Which response (TbMCUcΔ2) did it give?
Answer: 85 units

Question: “TbMCU without the mitochondrial targeting signal, MYTH bait or prey TMH1 replaced by WALP (…)” was tested. Which response [1] did it give?
Answer: 82 units

Question: And the response [2]?
Answer: 78 units

Question: What does the source list for “TbMCU without the mitochondrial targeting signal, MYTH bait or prey TMH1 and TMH2 each replaced by WALP (…)”?
Answer: response [1]: 15 units; response [2]: 12 units

Question: Which response [1] does the source give for “TbMCU without the mitochondrial targeting signal, MYTH bait or prey TMH2 replaced by WALP (…)” here?
Answer: 50 units

Question: What about the response [2] of the same substance?
Answer: 45 units

Question: What does the source list for “TbMCU without the mitochondrial targeting signal, MYTH bait or prey Q213A; V216F; I217F; F222A”?
Answer: response [1]: 100 units; response [2]: 88 units

Reference: PMC6143741
